B1: Transcriptional repressor p66-alpha (Homo sapiens), Q86YP4 (parent)
chain: MTEEACRTRSQKRALERDPTEDDVESKKIKMERGLLASDLNTDGDMRVTPEPGAGPTQGLLRATEATAMAMGRGEGLVGDGPVDMRTSHSDMKSERRPPSPDVIVLSDNEQPSSPRVNGLTTVALKETSTEALMKSSPEERERMIKQLKEELRLEEAKLVLLKKLRQSQIQKEATAQKPTGSVGSTVTTPPPLVRGTQNIPAGKPSLQTSSARMPGSVIPPPLVRGGQQASSKLGPQASSQVVMPPLVRGAQQIHSIRQHSSTGPPPLLLAPRASVPSVQIQGQRIIQQGLIRVANVPNTSLLVNIPQPTPASLKGTTATSAQANSTPTSVASVVTSAESPASRQAAAKLALRKQLEKTLLEIPPPKPPAPEMNFLPSAANNEFIYLVGLEEVVQNLLETQGRMSAATVLSREPYMCAQCKTDFTCRWREEKSGAIMCENCMTTNQKKALKVEHTSRLKAAFVKALQQEQEIEQRLLQQGTAPAQAKAEPTAAPHPVLKQVIKPRRKLAFRSGEARDWSNGAVLQASSQLSRGSATTPRGVLHTFSPSPKLQNSASATALVSRTGRHSERTVSAGKGSATSNWKKTPLSTGGTLAFVSPSLAVHKSSSAVDRQREYLLDMIPPRSIPQSATWK

Variants of: B1
Conditions: with mbd2_human MBD2, Q9UBB5
Sequence of mbd2_human MBD2, Q9UBB5 (Q9UBB5 whole entry): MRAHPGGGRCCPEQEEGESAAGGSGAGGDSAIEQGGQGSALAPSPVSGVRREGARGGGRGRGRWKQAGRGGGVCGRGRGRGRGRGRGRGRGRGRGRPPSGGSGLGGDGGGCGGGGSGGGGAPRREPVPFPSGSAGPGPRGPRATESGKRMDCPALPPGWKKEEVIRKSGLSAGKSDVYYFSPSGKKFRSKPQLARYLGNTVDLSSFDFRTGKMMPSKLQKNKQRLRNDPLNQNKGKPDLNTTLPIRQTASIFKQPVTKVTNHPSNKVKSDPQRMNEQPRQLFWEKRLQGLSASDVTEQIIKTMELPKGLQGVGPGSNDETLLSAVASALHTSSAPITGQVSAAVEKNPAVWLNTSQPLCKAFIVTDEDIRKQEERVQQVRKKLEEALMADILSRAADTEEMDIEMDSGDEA

**Q.** Which “effect of a mutation on the interaction” value does the source give for K149R here?
**A.** decreasing interaction

— IntAct's records for PubMed 16415179
